The record followed here is the supplement of paper PMC10899765.

Details in all cases: 20 nM; 72 h
The test system of data set [1] is MCF10A. In words: percent viability (nuclei count relative to siNT); higher = more viable cells. How it is done:
(§1)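 After 72 h, cells were fixed and stained with Hoechst and anti-fibrillarin, and nucleoli per nucleus were counted with CellProfiler. Values are plate-adjusted percent effect for the one-nucleolus and 5+ nucleoli phenotypes, normalised to siNT (0%) and to the positive controls siNOL11 or siKIF11 (100%), as the mean of biological triplicates. Percent viability is the nuclei count relative to siNT.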

In data set [2] the test system is MCF10A. The experiment in a line: 5+ nucleoli phenotype percent effect (relative to siNT 0% and siKIF11 100%); higher = more cells with five or more nucleoli. How it is done: as §1
Data set [3] has as its system MCF10A. The experiment in a line: one-nucleolus phenotype percent effect (relative to siNT 0% and siNOL11 100%); higher = more cells with one nucleolus (ribosome biogenesis inhibition). How it is done: as §1

With ACUGGCAUUAGUGGGACUUUU [hsa-miR-5588-5p], the percent viability in data set [1] was 46.1%. The “5+ nucleoli phenotype percent effect” value in data set [2] turned out to be 33.4%. For the same sequence, the “one-nucleolus phenotype percent effect” value in data set [3] is -3.93%.
For “UGAUUGUAGCCUUUUGGAGUAGA [hsa-miR-508-3p]”, in data set [1], the percent viability came out at 54.1%. In data set [2], the “5+ nucleoli phenotype percent effect” value was -32%. For the same sequence, in data set [3], the “one-nucleolus phenotype percent effect” value amounted to 23.4%.
In the same order, the values of UCUGGGUGCAGUGGGGGUU [hsa-miR-6776-5p] are 2.41%, -32.7% and 24.4%.
In the same order, the values of CUCGCCCUGUCUCCCGCUAG [hsa-miR-6726-3p] are 126%, 66.4% and -28.4%.
With AACGCACUUCCCUUUAGAGUGU [hsa-miR-521], the percent viability in data set [1] was found to be 57.9%. The “5+ nucleoli phenotype percent effect” value in data set [2] was 28.6%. The “one-nucleolus phenotype percent effect” value in data set [3] was -9.21%.
Turning to “GGGGUAUUGUUUCCGCUGCCAGG [hsa-miR-503-3p]”, in data set [1], the percent viability was found to be 40.1%. Besides, the “5+ nucleoli phenotype percent effect” value in data set [2] was -25.1%. The “one-nucleolus phenotype percent effect” value in data set [3] stood at 39%.
In the same order, the values of “UGCAAAAGUAAUUGCAGUUUUUG [hsa-miR-548x-5p]” are 63%, -24.2% and -9.86%.
On the same counts, the results for “GAAAGUGCUUCCUUUUAGAGGC [hsa-miR-526b-3p]” are 105%, 57.2% and -23.4%.
In the same order, the values of “GUGUGGAAGAUGGGAGGAGAAA [hsa-miR-6833-5p]” are 49.8%, 4.29% and -3.83%.
Turning to AGGUUGCCUGUGAGGUGUUCA [hsa-miR-656-5p], the percent viability in data set [1] came to 17.5%. The “5+ nucleoli phenotype percent effect” value in data set [2] was -1.12%. In data set [3], the “one-nucleolus phenotype percent effect” value was found to be 10.7%.
On the same counts, the results for UCCUGUCUUUCCUUGUUGGAGC [hsa-miR-5699] are 186%, 51.3% and -26.2%.
In the same order, the values of AAGCCUCUGUCCCCACCCCAG [hsa-miR-6819-3p] are 70.8%, -5.25% and -17.6%.
In the same order, the values of “AGGACUGAUCCUCUCGGGCAGG [hsa-miR-4740-5p]” are 24.1%, -14.8% and 47.7%.
Consider UGUGGGAUCUGGAGGCAUCUGG [hsa-miR-4654], for which the percent viability in data set [1] came to 38.8%. In addition, the “5+ nucleoli phenotype percent effect” value in data set [2] was -29.4%. Moreover, in data set [3], the “one-nucleolus phenotype percent effect” value came to 6.3%.
On the same counts, the results for “CCAACCUAGGUGGUCAGAGUUG [hsa-miR-4714-3p]” are 98.3%, 42% and -11.1%.
In the same order, the values of “GGCAGGAGGGCUGUGCCAGGUUG [hsa-miR-4722-5p]” are 60.5%, 13.5% and -6.08%.
In the same order, the values of AGAAGGGAAGAUGGUGAC [hsa-miR-7515] are 42.5%, 4.41% and -2.73%.
Consider “AGGAGGGAGGAGAUGGGCCAAGUU [hsa-miR-1249-5p]”, for which, in data set [1], the percent viability worked out at 11.3%. In addition, the “5+ nucleoli phenotype percent effect” value in data set [2] was -22.4%. In addition, in data set [3], the “one-nucleolus phenotype percent effect” value was 45.9%.
On the same counts, the results for CACCCGGCUGUGUGCACAUGUGC [hsa-miR-941] are 56.3%, -23.6% and -3.88%.
On the same counts, the results for CAAUUUAGUGUGUGUGAUAUUU [hsa-miR-32-3p] are 80.6%, 35.1% and -22.3%.
In the same order, the values of AAAAGCUGGGUUGAGAGGGCGA [hsa-miR-320a] are 38.1%, -11.8% and 18.7%.
As for UGACCCCUUCUGUCUCCCUAG [hsa-miR-6846-3p], the percent viability in data set [1] came to 47.5%. In addition, the “5+ nucleoli phenotype percent effect” value in data set [2] is 10.3%. For the same sequence, the “one-nucleolus phenotype percent effect” value in data set [3] is -13.6%.
In the same order, the values of “CAGGGCAGGAAGAAGUGGACAA [hsa-miR-4436b-3p]” are 20.5%, -7.65% and 31.7%.
In the same order, the values of AUCUGUAAGAGAAAGUAAAUGA [hsa-miR-3686] are 48.4%, 21.5% and -0.187%.
Turning to ACUGAAUCCUCUUUUCCUCAG [hsa-miR-5187-3p], in data set [1], the percent viability was found to be 67.9%. Besides, the “5+ nucleoli phenotype percent effect” value in data set [2] was determined as 0.116%. Moreover, the “one-nucleolus phenotype percent effect” value in data set [3] is -12.2%.
Turning to UAUACAAGGGCAGACUCUCUCU [hsa-miR-300], the percent viability in data set [1] is 68.9%. Further, the “5+ nucleoli phenotype percent effect” value in data set [2] is -6.47%. Also, the “one-nucleolus phenotype percent effect” value in data set [3] was -10.6%.
AAAAGUAUUUGCGGGUUUUGUC [hsa-miR-548l]: the percent viability in data set [1] was 127%. Also, in data set [2], the “5+ nucleoli phenotype percent effect” value was found to be 30%. Besides, the “one-nucleolus phenotype percent effect” value in data set [3] is -20.8%.
Take GGGAGAAGGGUCGGGGC [hsa-miR-4516]: in data set [1], the percent viability was 94.1%. In data set [2], the “5+ nucleoli phenotype percent effect” value was determined as 31.9%. Also, the “one-nucleolus phenotype percent effect” value in data set [3] is -25.4%.
In the same order, the values of AGCAUGACAGAGGAGAGGUGG [hsa-miR-6076] are 33.8%, -17.6% and 7.38%.
In the same order, the values of “UAAUCUCAGCUGGCAACUGUGA [hsa-miR-216a-5p]” are 67.7%, -8.01% and 6.23%.
Regarding UGUAAACAUCCCCGACUGGAAG [hsa-miR-30d-5p], the percent viability in data set [1] was 62.7%. Further, in data set [2], the “5+ nucleoli phenotype percent effect” value is 30.3%. Besides, the “one-nucleolus phenotype percent effect” value in data set [3] was 0.554%.
On the same counts, the results for “UCUACAGUGCACGUGUCUCCAGU [hsa-miR-139-5p]” are 67.5%, -2.1% and -8.78%.
On the same counts, the results for CAGGGUCAGCUGAGCAUG [hsa-miR-1178-5p] are 51.5%, 8.34% and 9.85%.
In the same order, the values of UAAAUCCCAUGGUGCCUUCUCCU [hsa-miR-605] are 31.2%, -52.1% and 53.8%.
For ACAGUCUGCUGAGGUUGGAGC [hsa-miR-622], in data set [1], the percent viability came out at 86.2%. Besides, the “5+ nucleoli phenotype percent effect” value in data set [2] was -4.39%. Moreover, the “one-nucleolus phenotype percent effect” value in data set [3] came out at 8.72%.
In the same order, the values of UGAAGCGCCUGUGCUCUGCCGAGA [hsa-miR-7706] are 40.2%, 12.3% and -18.1%.
On the same counts, the results for GAUCUCACUUUGUUGCCCAGG [hsa-miR-1285-5p] are 43.4%, 15.8% and -20.8%.
Regarding “CUCGGGGCAGGCGGCUGGGAGCG [hsa-miR-6727-5p]”, the percent viability in data set [1] stood at 74.2%. Also, the “5+ nucleoli phenotype percent effect” value in data set [2] was determined as 19.5%. Besides, the “one-nucleolus phenotype percent effect” value in data set [3] was -15.9%.
On to UGUGACAAUAGAGAUGAACAUG [hsa-miR-4504], for which, in data set [1], the percent viability came to 39.9%. Moreover, the “5+ nucleoli phenotype percent effect” value in data set [2] is -15.9%. The “one-nucleolus phenotype percent effect” value in data set [3] amounted to 30.4%.
Regarding CUCUGGGAAAUGGGACAG [hsa-miR-4314], the percent viability in data set [1] came to 25.6%. The “5+ nucleoli phenotype percent effect” value in data set [2] is -5.34%. Also, the “one-nucleolus phenotype percent effect” value in data set [3] was determined as 11.2%.
On the same counts, the results for AGGAGAGUGGAUUCCAGGUGGU [hsa-miR-5192] are 24.2%, 20.1% and 10.4%.
In the same order, the values of UUGAAAGGCUAUUUCUUGGUC [hsa-miR-488-3p] are 36.8%, -44.7% and 39.9%.
On the same counts, the results for “UACGUAGAUAUAUAUGUAUUUU [hsa-miR-1277-3p]” are 135%, 41.8% and -20.9%.
For the sequence AUAUGUAUAUGUGACUGCUACU [hsa-miR-3924], the percent viability in data set [1] stood at 32%. For the same sequence, in data set [2], the “5+ nucleoli phenotype percent effect” value is -20.9%. Besides, in data set [3], the “one-nucleolus phenotype percent effect” value is -20%.
Regarding CCCGGACAGGCGUUCGUGCGACGU [hsa-miR-3687], the percent viability in data set [1] was determined as 86.1%. Moreover, in data set [2], the “5+ nucleoli phenotype percent effect” value worked out at 26.3%. Besides, the “one-nucleolus phenotype percent effect” value in data set [3] is -20.6%.
In the same order, the values of CAAAUUCGUAUCUAGGGGAAUA [hsa-miR-10a-3p] are 84.8%, 38.1% and -15.8%.
In the case of GAGGCUGAGCUGAGGAG [hsa-miR-4478], in data set [1], the percent viability is 22.9%. The “5+ nucleoli phenotype percent effect” value in data set [2] is -17.6%. The “one-nucleolus phenotype percent effect” value in data set [3] came out at 35.1%.
On the same counts, the results for “GAUGCGCCGCCCACUGCCCCGCGC [hsa-miR-4787-3p]” are 76.2%, 33.1% and -16.2%.
